Source: publication PMC12548662

Molecular target: Recombinant human α-centractin with an N-terminal His6 tag (human) (UniProt P61163)
Chain of UniProt P61163 (P61163 whole entry): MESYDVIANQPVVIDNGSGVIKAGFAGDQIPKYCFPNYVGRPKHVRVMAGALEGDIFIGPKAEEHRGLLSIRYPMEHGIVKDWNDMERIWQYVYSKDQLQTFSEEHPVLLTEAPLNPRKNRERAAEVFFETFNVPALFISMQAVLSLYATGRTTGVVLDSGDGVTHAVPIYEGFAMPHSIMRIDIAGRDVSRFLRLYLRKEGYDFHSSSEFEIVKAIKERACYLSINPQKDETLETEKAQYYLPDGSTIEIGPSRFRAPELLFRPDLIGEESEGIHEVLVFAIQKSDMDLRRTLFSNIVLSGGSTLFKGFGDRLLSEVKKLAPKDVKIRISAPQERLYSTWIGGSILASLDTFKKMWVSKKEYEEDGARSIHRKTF

B1: Recombinant His6-tagged human SETD3 (wild-type) (enzyme)
chain: MGKKSRVKTQKSGTGATATVSPKEILNLTSELLQKCSSPAPGPGKEWEEYVQIRTLVEKIRKKQKGLSVTFDGKREDYFPDLMKWASENGASVEGFEMVNFKEEGFGLRATRDIKAEELFLWVPRKLLMTVESAKNSVLGPLYSQDRILQAMGNIALAFHLLCERASPNSFWQPYIQTLPSEYDTPLYFEEDEVRYLQSTQAIHDVFSQYKNTARQYAYFYKVIQTHPHANKLPLKDSFTYEDYRWAVSSVMTRQNQIPTEDGSRVTLALIPLWDMCNHTNGLITTGYNLEDDRCECVALQDFRAGEQIYIFYGTRSNAEFVIHSGFFFDNNSHDRVKIKLGVSKSDRLYAMKAEVLARAGIPTSSVFALHFTEPPISAQLLAFLRVFCMTEEELKEHLLGDSAIDRIFTLGNSEFPVSWDNEVKLWTFLEDRASLLLKTYKTTIEEDKSVLKNHDLSVRAKMAIKLRLGEKEILEKAVKSAAVNREYYRQQMEEKAPLPKYEESNLGLLESSVGDSRLPLVLRNLEEEAGVQDALNIREAISKAKATENGLVNGENSIPNGTRSENESLNQESKRAVEDAKGSSSDSTAGVKE
- KM of SETD3 for α-centractin (0.2–5 µM), radiochemical methyltransferase assay, 5 min at 37 °C with 1 µM [1H+3H]SAM: 3.83 µM
